Data from IntAct's records for PubMed 35512704.

B1: Speckle-type POZ protein (Homo sapiens), O43791 (parent)
chain: MSRVPSPPPPAEMSSGPVAESWCYTQIKVVKFSYMWTINNFSFCREEMGEVIKSSTFSSGANDKLKWCLRVNPKGLDEESKDYLSLYLLLVSCPKSEVRAKFKFSILNAKGEETKAMESQRAYRFVQGKDWGFKKFIRRDFLLDEANGLLPDDKLTLFCEVSVVQDSVNISGQNTMNMVKVPECRLADELGGLWENSRFTDCCLCVAGQEFQAHKAILAARSPVFSAMFEHEMEESKKNRVEINDVEPEVFKEMMCFIYTGKAPNLDKMADDLLAAADKYALERLKVMCEDALCSNLSVENAAEILILADLHSADQLKTQAVDFINYHASDVLETSGWKSMVVSHPHLVAEAYRSLASAQCPFLGPPRKRLKQS
partner: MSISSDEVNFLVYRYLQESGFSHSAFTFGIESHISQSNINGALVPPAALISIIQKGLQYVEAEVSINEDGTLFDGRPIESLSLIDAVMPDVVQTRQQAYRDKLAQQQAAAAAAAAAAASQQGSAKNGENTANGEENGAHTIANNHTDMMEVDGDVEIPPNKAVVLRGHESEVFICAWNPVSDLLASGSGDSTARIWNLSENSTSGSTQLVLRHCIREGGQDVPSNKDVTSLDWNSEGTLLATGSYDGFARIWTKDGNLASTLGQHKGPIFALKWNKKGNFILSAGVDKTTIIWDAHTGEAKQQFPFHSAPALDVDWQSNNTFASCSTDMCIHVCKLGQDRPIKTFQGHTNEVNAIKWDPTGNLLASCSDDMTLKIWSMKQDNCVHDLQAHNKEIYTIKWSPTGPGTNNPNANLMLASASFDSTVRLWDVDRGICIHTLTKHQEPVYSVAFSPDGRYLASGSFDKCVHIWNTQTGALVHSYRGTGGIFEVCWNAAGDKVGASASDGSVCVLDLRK
B2: Speckle-type POZ protein (Homo sapiens), O43791 (parent)
chain: B1 chain
partner: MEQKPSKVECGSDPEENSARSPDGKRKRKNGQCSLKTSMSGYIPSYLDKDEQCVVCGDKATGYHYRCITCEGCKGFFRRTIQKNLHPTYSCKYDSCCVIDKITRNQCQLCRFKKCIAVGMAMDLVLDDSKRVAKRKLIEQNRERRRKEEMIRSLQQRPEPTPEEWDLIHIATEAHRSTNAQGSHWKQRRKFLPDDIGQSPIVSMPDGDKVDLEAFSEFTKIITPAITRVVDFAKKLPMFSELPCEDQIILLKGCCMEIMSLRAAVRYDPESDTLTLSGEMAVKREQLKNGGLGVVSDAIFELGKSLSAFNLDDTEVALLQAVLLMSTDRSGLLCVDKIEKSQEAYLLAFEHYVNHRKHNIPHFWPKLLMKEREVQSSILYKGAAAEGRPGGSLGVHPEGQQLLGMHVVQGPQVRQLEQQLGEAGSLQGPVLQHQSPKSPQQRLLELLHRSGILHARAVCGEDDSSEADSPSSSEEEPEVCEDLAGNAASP

Variants of: B1
Settings: with tbl1r_human TBL1XR1, Q9BZK7

| effect of a mutation on the interaction | Variant |
| --- | --- |
| with no effect | MSRVPSPPPPAEMSSGPVAESWCYTQIKVVKFSYMWTINNFSFCREEMGEVIKSSTFSSGANDKLKWCLRVNPKGLDEESKDYLSLYLLLVSCPKSEVRAKCKFSILNAKGEETKAMESQRAYRFVQGKDWGFKKFIRRDFLLDEANGLLPDDKLTLFCEVSVVQDSVNISGQNTMNMVKVPECRLADELGGLWENSRFTDCCLCVAGQEFQAHKAILAARSPVFSAMFEHEMEESKKNRVEINDVEPEVFKEMMCFIYTGKAPNLDKMADDLLAAADKYALERLKVMCEDALCSNLSVENAAEILILADLHSADQLKTQAVDFINYHASDVLETSGWKSMVVSHPHLVAEAYRSLASAQCPFLGPPRKRLKQS [F102C] |

Variants of: B1
Settings: with tbl1r_human TBL1XR1, Q9BZK7
Remark: another data set of the same source

| effect of a mutation on the interaction | Variant |
| --- | --- |
| with no effect | MSRVPSPPPPAEMSSGPVAESWCYTQIKVVKFSYMWTINNFSFCREEMGEVIKSSTFSSGANDKLKWCLRVNPKGLDEESKDYLSLYLLLVSCPKSEVRAKFKFSILNAKGEETKAMESQRAYRFVQGKDWGLKKFIRRDFLLDEANGLLPDDKLTLFCEVSVVQDSVNISGQNTMNMVKVPECRLADELGGLWENSRFTDCCLCVAGQEFQAHKAILAARSPVFSAMFEHEMEESKKNRVEINDVEPEVFKEMMCFIYTGKAPNLDKMADDLLAAADKYALERLKVMCEDALCSNLSVENAAEILILADLHSADQLKTQAVDFINYHASDVLETSGWKSMVVSHPHLVAEAYRSLASAQCPFLGPPRKRLKQS [F133L] |

Variants of: B1
Settings: with tbl1r_human TBL1XR1, Q9BZK7
Remark: another data set of the same source

| effect of a mutation on the interaction | Variant |
| --- | --- |
| with no effect | MSRVPSPPPPAEMSSGPVAESWCYTQIKVVKFSYMWTINNFSFCREEMGEVIKSSTFSSGANDKLKWCLRVNPKGLDEESKDYLSLYLLLVSCPKSEVRAKFKFSILNAKGEETKAMESQRAYRFVQGKDWGVKKFIRRDFLLDEANGLLPDDKLTLFCEVSVVQDSVNISGQNTMNMVKVPECRLADELGGLWENSRFTDCCLCVAGQEFQAHKAILAARSPVFSAMFEHEMEESKKNRVEINDVEPEVFKEMMCFIYTGKAPNLDKMADDLLAAADKYALERLKVMCEDALCSNLSVENAAEILILADLHSADQLKTQAVDFINYHASDVLETSGWKSMVVSHPHLVAEAYRSLASAQCPFLGPPRKRLKQS [F133V] |

Variants of: B1
Settings: with tbl1r_human TBL1XR1, Q9BZK7
Remark: another data set of the same source

| effect of a mutation on the interaction | Variant |
| --- | --- |
| with no effect | MSRVPSPPPPAEMSSGPVAESWCYTQIKVVKFSYMWTINNFSFCREEMGEVIKSSTFSSGANDKLKWCLRVNPKGLDEESKDYLSLCLLLVSCPKSEVRAKFKFSILNAKGEETKAMESQRAYRFVQGKDWGFKKFIRRDFLLDEANGLLPDDKLTLFCEVSVVQDSVNISGQNTMNMVKVPECRLADELGGLWENSRFTDCCLCVAGQEFQAHKAILAARSPVFSAMFEHEMEESKKNRVEINDVEPEVFKEMMCFIYTGKAPNLDKMADDLLAAADKYALERLKVMCEDALCSNLSVENAAEILILADLHSADQLKTQAVDFINYHASDVLETSGWKSMVVSHPHLVAEAYRSLASAQCPFLGPPRKRLKQS [Y87C] |

Variants of: B2
Settings: with tha_human THRA

| effect of a mutation on the interaction | Variant |
| --- | --- |
| with no effect | MSRVPSPPPPAEMSSGPVAESWCYTQIKVVKFSYMWTINNFSFCREEMGEVIKSSTFSSGANDKLKWCLRVNPKGLDEESKDYLSLYLLLVSCPKSEVRAKFKFSILNAKGEETKAMESQRAYRFVQGKDWGVKKFIRRDFLLDEANGLLPDDKLTLFCEVSVVQDSVNISGQNTMNMVKVPECRLADELGGLWENSRFTDCCLCVAGQEFQAHKAILAARSPVFSAMFEHEMEESKKNRVEINDVEPEVFKEMMCFIYTGKAPNLDKMADDLLAAADKYALERLKVMCEDALCSNLSVENAAEILILADLHSADQLKTQAVDFINYHASDVLETSGWKSMVVSHPHLVAEAYRSLASAQCPFLGPPRKRLKQS [F133V] |

Variants of: B2
Settings: with tha_human THRA
Remark: another data set of the same source

| effect of a mutation on the interaction | Variant |
| --- | --- |
| with no effect | MSRVPSPPPPAEMSSGPVAESWCYTQIKVVKFSYMWTINNFSFCREEMGEVIKSSTFSSGANDKLKWCLRVNPKGLDEESKDYLSLYLLLVSCPKSEVRAKFKFSILNAKGEETKAMESQRAYRFVQGKDWGLKKFIRRDFLLDEANGLLPDDKLTLFCEVSVVQDSVNISGQNTMNMVKVPECRLADELGGLWENSRFTDCCLCVAGQEFQAHKAILAARSPVFSAMFEHEMEESKKNRVEINDVEPEVFKEMMCFIYTGKAPNLDKMADDLLAAADKYALERLKVMCEDALCSNLSVENAAEILILADLHSADQLKTQAVDFINYHASDVLETSGWKSMVVSHPHLVAEAYRSLASAQCPFLGPPRKRLKQS [F133L] |

Variants of: B2
Settings: with tha_human THRA
Remark: another data set of the same source

| effect of a mutation on the interaction | Variant |
| --- | --- |
| with no effect | MSRVPSPPPPAEMSSGPVAESWCYTQIKVVKFSYMWTINNFSFCREEMGEVIKSSTFSSGANDKLKWCLRVNPKGLDEESKDYLSLYLLLVSCPKSEVRAKCKFSILNAKGEETKAMESQRAYRFVQGKDWGFKKFIRRDFLLDEANGLLPDDKLTLFCEVSVVQDSVNISGQNTMNMVKVPECRLADELGGLWENSRFTDCCLCVAGQEFQAHKAILAARSPVFSAMFEHEMEESKKNRVEINDVEPEVFKEMMCFIYTGKAPNLDKMADDLLAAADKYALERLKVMCEDALCSNLSVENAAEILILADLHSADQLKTQAVDFINYHASDVLETSGWKSMVVSHPHLVAEAYRSLASAQCPFLGPPRKRLKQS [F102C] |

Variants of: B2
Settings: with tha_human THRA
Remark: another data set of the same source

| effect of a mutation on the interaction | Variant |
| --- | --- |
| with no effect | MSRVPSPPPPAEMSSGPVAESWCYTQIKVVKFSYMWTINNFSFCREEMGEVIKSSTFSSGANDKLKWCLRVNPKGLDEESKDYLSLCLLLVSCPKSEVRAKFKFSILNAKGEETKAMESQRAYRFVQGKDWGFKKFIRRDFLLDEANGLLPDDKLTLFCEVSVVQDSVNISGQNTMNMVKVPECRLADELGGLWENSRFTDCCLCVAGQEFQAHKAILAARSPVFSAMFEHEMEESKKNRVEINDVEPEVFKEMMCFIYTGKAPNLDKMADDLLAAADKYALERLKVMCEDALCSNLSVENAAEILILADLHSADQLKTQAVDFINYHASDVLETSGWKSMVVSHPHLVAEAYRSLASAQCPFLGPPRKRLKQS [Y87C] |
